Here are results for one substance from patent US20040258688A1.

The assay addresses murine DEC-205 (mouse) (UniProt Q60767). Kind of assay: Alexa488-conjugated antibody (10 µg) injected s.c.; flow cytometry of CD11c+ cells. (In flow cytometry, cells or beads pass a laser one at a time.)
Sequence of UniProt Q60767 (Q60767 28-1723 S1283P limits assumed): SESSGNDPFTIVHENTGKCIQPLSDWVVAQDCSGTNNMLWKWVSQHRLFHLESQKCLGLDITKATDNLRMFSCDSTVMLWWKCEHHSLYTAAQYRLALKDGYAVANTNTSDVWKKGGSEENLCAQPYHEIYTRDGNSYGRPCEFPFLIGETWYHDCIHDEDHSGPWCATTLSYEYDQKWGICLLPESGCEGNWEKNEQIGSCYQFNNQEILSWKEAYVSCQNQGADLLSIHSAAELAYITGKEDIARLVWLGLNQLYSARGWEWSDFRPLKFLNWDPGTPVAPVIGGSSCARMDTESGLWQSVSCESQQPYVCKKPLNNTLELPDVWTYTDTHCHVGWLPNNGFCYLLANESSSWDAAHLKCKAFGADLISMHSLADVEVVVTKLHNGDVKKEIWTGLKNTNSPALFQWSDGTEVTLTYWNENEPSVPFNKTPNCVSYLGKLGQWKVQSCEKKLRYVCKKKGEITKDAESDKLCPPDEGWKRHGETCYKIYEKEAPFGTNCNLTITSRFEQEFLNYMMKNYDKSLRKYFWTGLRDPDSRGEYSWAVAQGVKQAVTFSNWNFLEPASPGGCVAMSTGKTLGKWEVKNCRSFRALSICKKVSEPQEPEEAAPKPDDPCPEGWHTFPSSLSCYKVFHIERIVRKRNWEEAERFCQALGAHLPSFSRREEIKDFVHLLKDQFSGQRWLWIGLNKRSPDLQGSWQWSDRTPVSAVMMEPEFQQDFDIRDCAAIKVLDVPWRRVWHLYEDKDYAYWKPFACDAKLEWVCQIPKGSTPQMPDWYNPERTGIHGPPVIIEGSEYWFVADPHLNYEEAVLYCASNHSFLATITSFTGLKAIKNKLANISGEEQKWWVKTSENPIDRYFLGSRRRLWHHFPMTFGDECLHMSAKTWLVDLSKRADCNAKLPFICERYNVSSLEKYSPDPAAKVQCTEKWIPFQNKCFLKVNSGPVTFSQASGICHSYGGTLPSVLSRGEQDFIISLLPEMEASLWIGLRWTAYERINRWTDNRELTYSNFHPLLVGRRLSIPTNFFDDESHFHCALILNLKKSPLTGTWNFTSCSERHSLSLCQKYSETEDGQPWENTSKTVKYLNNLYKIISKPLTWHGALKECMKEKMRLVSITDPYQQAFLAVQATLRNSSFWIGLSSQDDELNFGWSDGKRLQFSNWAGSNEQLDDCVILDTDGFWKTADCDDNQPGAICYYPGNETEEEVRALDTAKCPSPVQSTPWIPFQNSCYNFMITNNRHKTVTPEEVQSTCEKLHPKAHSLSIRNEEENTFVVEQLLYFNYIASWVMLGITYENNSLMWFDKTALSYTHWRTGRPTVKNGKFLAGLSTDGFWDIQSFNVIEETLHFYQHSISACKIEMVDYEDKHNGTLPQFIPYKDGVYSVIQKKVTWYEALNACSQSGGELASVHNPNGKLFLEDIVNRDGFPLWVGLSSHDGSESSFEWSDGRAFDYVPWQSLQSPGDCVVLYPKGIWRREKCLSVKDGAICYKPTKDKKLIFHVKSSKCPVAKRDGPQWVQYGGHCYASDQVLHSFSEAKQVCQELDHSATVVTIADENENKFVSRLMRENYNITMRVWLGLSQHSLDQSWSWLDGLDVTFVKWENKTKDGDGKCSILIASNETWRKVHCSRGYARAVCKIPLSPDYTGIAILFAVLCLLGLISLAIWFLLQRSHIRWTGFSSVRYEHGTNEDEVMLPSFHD

The substance NLDC-145 monoclonal antibody to DEC-205 gave a percent of distal lymph node DCs loaded with injected antibody at 6 hrs of 40%, a percent of draining lymph node DCs loaded with injected antibody at 6 hrs of more than 50% and a percent of spleen DCs loaded with injected antibody at 6 hrs of 30%.
